Measurements: US20260274985A1 (MYTHIC THERAPEUTICS, published 2026)

T1: Human TROP2 Protein, His Tag (Acro Biosystems) (human, UniProt P09758 27-274)
T1 construct: not shown: His tag
T1 sequence (looked up): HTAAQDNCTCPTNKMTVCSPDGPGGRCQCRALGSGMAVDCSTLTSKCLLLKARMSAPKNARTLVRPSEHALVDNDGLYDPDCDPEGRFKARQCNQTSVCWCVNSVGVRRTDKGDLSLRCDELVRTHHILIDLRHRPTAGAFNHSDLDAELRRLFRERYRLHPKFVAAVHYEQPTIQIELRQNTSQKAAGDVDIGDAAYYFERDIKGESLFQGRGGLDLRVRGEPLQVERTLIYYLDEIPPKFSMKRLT

T2: Human TROP2 Protein, His Tag (Acro Biosystems) (human, UniProt P09758 27-274)
T2 construct: not shown: His tag
T2 sequence (looked up): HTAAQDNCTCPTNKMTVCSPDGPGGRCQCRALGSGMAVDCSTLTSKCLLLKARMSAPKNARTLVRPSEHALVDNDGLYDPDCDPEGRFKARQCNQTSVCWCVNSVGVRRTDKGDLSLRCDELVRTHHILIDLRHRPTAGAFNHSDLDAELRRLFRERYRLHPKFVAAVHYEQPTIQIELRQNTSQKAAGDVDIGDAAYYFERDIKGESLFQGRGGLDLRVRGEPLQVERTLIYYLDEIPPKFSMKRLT

T3: TROP2 on TROP2-positive NCI-H1975 cells (human, UniProt P09758 27-323)
T3 sequence: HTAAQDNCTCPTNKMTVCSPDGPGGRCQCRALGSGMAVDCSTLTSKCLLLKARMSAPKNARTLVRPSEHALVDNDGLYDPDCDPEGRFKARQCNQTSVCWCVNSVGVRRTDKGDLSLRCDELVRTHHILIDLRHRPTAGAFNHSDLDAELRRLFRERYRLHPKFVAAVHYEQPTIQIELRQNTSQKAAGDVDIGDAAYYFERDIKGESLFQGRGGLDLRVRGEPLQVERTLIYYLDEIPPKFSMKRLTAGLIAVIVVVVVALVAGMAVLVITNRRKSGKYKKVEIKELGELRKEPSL

T4: Human TROP2 Protein, His Tag (Acro Biosystems) (human, UniProt P09758 27-274)
T4 construct: also called TACSTD2; not shown: His tag
T4 sequence (looked up): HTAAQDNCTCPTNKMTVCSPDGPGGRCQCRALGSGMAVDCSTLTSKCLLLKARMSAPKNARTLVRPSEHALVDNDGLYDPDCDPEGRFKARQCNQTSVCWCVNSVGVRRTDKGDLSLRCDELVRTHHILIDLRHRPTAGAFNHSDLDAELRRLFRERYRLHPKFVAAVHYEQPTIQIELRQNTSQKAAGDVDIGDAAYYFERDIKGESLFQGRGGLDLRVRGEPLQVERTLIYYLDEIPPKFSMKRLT


Molecular target: T1, Human TROP2 Protein, His Tag (Acro …)
Assay: BLI (Octet)

Binder	binding result
MYT12393 (antibody, V domains shown, datopotamab VL 51, 89 substituted) VH: QVQLVQSGAEVKKPGASVKVSCKASGYTFTTAGMQWVRQAPGQGLEWMGWINTHSGVPKYAEDFKGRVTISADTSTSTAYLQLSSLKSEDTAVYYCARSGFGSSYWYFDVWGQGTLVTVSS VL: DIQMTQSPSSLSASVGDRVTITCKASQDVSTAVAWYQQKPGKAPKLLIYSHSYRYTGVPSRFSGSGSGTDFTLTISSLQPEDFAVYYCHQHYITPLTFGQGTKLEIK	binds
MYT12404 (antibody, V domains shown, datopotamab VL 51, 52, 89 substituted) VH: QVQLVQSGAEVKKPGASVKVSCKASGYTFTTAGMQWVRQAPGQGLEWMGWINTHSGVPKYAEDFKGRVTISADTSTSTAYLQLSSLKSEDTAVYYCARSGFGSSYWYFDVWGQGTLVTVSS VL: DIQMTQSPSSLSASVGDRVTITCKASQDVSTAVAWYQQKPGKAPKLLIYSHHYRYTGVPSRFSGSGSGTDFTLTISSLQPEDFAVYYCHQHYITPLTFGQGTKLEIK	binds
MYT12398 (antibody, V domains shown, datopotamab VL 28, 51, 52 substituted) VH: QVQLVQSGAEVKKPGASVKVSCKASGYTFTTAGMQWVRQAPGQGLEWMGWINTHSGVPKYAEDFKGRVTISADTSTSTAYLQLSSLKSEDTAVYYCARSGFGSSYWYFDVWGQGTLVTVSS VL: DIQMTQSPSSLSASVGDRVTITCKASQHVSTAVAWYQQKPGKAPKLLIYSHHYRYTGVPSRFSGSGSGTDFTLTISSLQPEDFAVYYCQQHYITPLTFGQGTKLEIK	binds
MYT12392 (antibody, V domains shown, datopotamab VL 51, 52 substituted) VH: QVQLVQSGAEVKKPGASVKVSCKASGYTFTTAGMQWVRQAPGQGLEWMGWINTHSGVPKYAEDFKGRVTISADTSTSTAYLQLSSLKSEDTAVYYCARSGFGSSYWYFDVWGQGTLVTVSS VL: DIQMTQSPSSLSASVGDRVTITCKASQDVSTAVAWYQQKPGKAPKLLIYSHHYRYTGVPSRFSGSGSGTDFTLTISSLQPEDFAVYYCQQHYITPLTFGQGTKLEIK	binds

Molecular target: T2, Human TROP2 Protein, His Tag (Acro …)
Assay: BLI (Octet)

Binder	binding result
MYT13295 (antibody, V domains shown, Full-length IgG from Expi293 supernatant; also called hu7E6SVG heavy chain and light chain pairing variant) VH: QVQLQESGPGLVKPSETLSLTCTVSGGSISSYGVHWIRQPPGKGLEWIGVIWTSGVTDYNSALMGRVTISVDTSKNQFSLKLSSVTAADTAVYYCARDGDYDRYTHDYWGQGTLVTVSS VL: DIVMTQSPDSLAVSLGERATINCRASKSVSTSGYSYMHWYQQKPGQPPKLLIYLASNLESGVPDRFSGSGSGTDFTLTISSLQAEDVAVYYCQASRELPYTFGQGTKLEIK	no binding (tested: 50 nM)
MYT13310 (antibody, V domains shown, Full-length IgG from Expi293 supernatant; also called hu7E6SVG heavy chain and light chain pairing variant) VH: QVQLQESGPGLVKPSETLSLTCTVSGGSISSYGVHWIRQPPGKGLEWIGVIWTSGVTDYNSALMGRVTISVDTSKNQFSLKLSSVTAADTAVYYCARDGDYDRYTHDYWGQGTLVTVSS VL: DIVMTQSPDSLAVSLGERATINCRASKSVSTSGYSYMHWYQQKPGQPPKLLIYLASNLHSGVPDRFSGSGSGTDFTLTISSLQAEDVAVYYCQASRELPYTFGQGTKLEIK	no binding (tested: 50 nM)
MYT13305 (antibody, V domains shown, Full-length IgG from Expi293 supernatant; also called hu7E6SVG heavy chain and light chain pairing variant) VH: QVQLQESGPGLVKPSETLSLTCTVSGGSISSYGVHWIRQPPGKGLEWIGVIWTSGVTDYNSALMGRVTISVDTSKNQFSLKLSSVTAADTAVYYCARDGDYDRYTHDYWGQGTLVTVSS VL: DIVMTQSPDSLAVSLGERATINCRASKSVSTSGYSYMHWYQQKPGQPPKLLIYLASNLESGVPDRFSGSGSGTDFTLTISSLQAEDVAVYYCQHSRELPYHFGQGTKLEIK	no binding (tested: 50 nM)
MYT13315 (antibody, V domains shown, Full-length IgG from Expi293 supernatant; also called hu7E6SVG heavy chain and light chain pairing variant) VH: QVQLQESGPGLVKPSETLSLTCTVSGGSISSYGVHWIRQPPGKGLEWIGVIWTSGVTDYNSALMGRVTISVDTSKNQFSLKLSSVTAADTAVYYCARDGDYDRYTHDYWGQGTLVTVSS VL: DIVMTQSPDSLAVSLGERATINCRASKSVSTSGYSYMHWYQQKPGQPPKLLIYLASNLHSGVPDRFSGSGSGTDFTLTISSLQAEDVAVYYCQHSRELPYHFGQGTKLEIK	no binding (tested: 50 nM)

Molecular target: T3, TROP2 on TROP2-positive NCI-H1975 cells
Assay: cell-based or functional assay

Binder	% efficiency @ 100 nM ADC (cytotoxicity in NCI-H1975 cells)
166-DXd (antibody, IgG1, V domains shown, maleimide based GGFG-DXd conjugated to hinge cysteines, average DAR of about 4) VH: QVQLQQSGSELKKPGASVKVSCKASGYTFTNYGMNWVKQAPGQGLKWMGWINTYTGEPTYTHDFKGRFAFSLDTSVSTAYLQISSLKADDTAVYFCARGGFGSSYWYFDVWGQGSLVTVSS VL: DIQLTQSPSSLSASVGDRVSITCKASQDVHIAVAWYQQKPGKAPKLLIYSHSYRYTGVPDRFSGSGSGTDFTLTISSLQPEDFAVYYCQQHYHTPLTFGAGTKVEIK	9.57%
165-DXd (antibody, IgG1, V domains shown, maleimide based GGFG-DXd conjugated to hinge cysteines, average DAR of about 4) VH: QVQLQQSGSELKKPGASVKVSCKASGYTFTNYGMNWVKQAPGQGLKWMGWINTYTGEPTYTDDFKGRFAFSLDTSVSTAYLQISSLKADDTAVYFCARGGFGSSYWYFDVWGQGSLVTVSS VL: DIQLTQSPSSLSASVGDRVSITCKASQDVSIAVAWYQQKPGKAPKLLIYSASYRYTGVPDRFSGSGSGTDFTLTISSLQPEDFAVYYCQQHYITPLTFGAGTKVEIK	1.47%
167-DXd (antibody, IgG1, V domains shown, maleimide based GGFG-DXd conjugated to hinge cysteines, average DAR of about 4) VH: QVQLQQSGSELKKPGASVKVSCKASGYTFTNYGMNWVKQAPGQGLKWMGWINTYTGEPTYTDHFKGRFAFSLDTSVSTAYLQISSLKADDTAVYFCARGGFGSSYWYFDVWGQGSLVTVSS VL: DIQLTQSPSSLSASVGDRVSITCKASQDVHIAHAWYQQKPGKAPKLLIYSASYRYTGVPDRFSGSGSGTDFTLTISSLQPEDFAVYYCQQHYITPLTFGAGTKVEIK	4.86%
168-DXd (antibody, IgG1, V domains shown, maleimide based GGFG-DXd conjugated to hinge cysteines, average DAR of about 4) VH: QVQLQQSGSELKKPGASVKVSCKASGYTFTNYGMNWVKQAPGQGLKWMGWINTYTGEPTYTDDHKGRFAFSLDTSVSTAYLQISSLKADDTAVYFCARGGFGSSYWYFDVWGQGSLVTVSS VL: DIQLTQSPSSLSASVGDRVSITCKASQDVHIAVAWYQQKPGKAPKLLIYSHSYRYTGVPDRFSGSGSGTDFTLTISSLQPEDFAVYYCQQHYHTPLTFGAGTKVEIK	7.32%

Molecular target: T4, Human TROP2 Protein, His Tag (Acro …)
Assay: BLI (Octet) [2/2]

Binder	binding result
MYT13254 (antibody, V domains shown, Sacituzumab HC-LC pairing variant) VH: QVQLQQSGSELKKPGASVKVSCKASGYTFTNYGMNWVKQAPGQGLKWMGWINTYTGEPTYTDDFHGRFAFSLDTSVSTAYLQISSLKADDTAVYFCARGGFGSSYWYFDVWGQGSLVTVSS VL: DIQLTQSPSSLSASVGDRVSITCKASQDVSIAVAWYQQKPGKAPKLLIYSAHYRYTGVPDRFSGSGSGTDFTLTISSLQPEDFAVYYCQQHYHTPLTFGAGTKVEIK	binds
MYT13252 (antibody, V domains shown, Sacituzumab HC-LC pairing variant) VH: QVQLQQSGSELKKPGASVKVSCKASGYTFTNYGMNWVKQAPGQGLKWMGWINTYTGEPTYTDHFKGRFAFSLDTSVSTAYLQISSLKADDTAVYFCARGGFGSSYWYFDVWGQGSLVTVSS VL: DIQLTQSPSSLSASVGDRVSITCKASQDVSIAVAWYQQKPGKAPKLLIYSAHYRYTGVPDRFSGSGSGTDFTLTISSLQPEDFAVYYCQQHYHTPLTFGAGTKVEIK	binds
MYT13253 (antibody, V domains shown, Sacituzumab HC-LC pairing variant) VH: QVQLQQSGSELKKPGASVKVSCKASGYTFTNYGMNWVKQAPGQGLKWMGWINTYTGEPTYTDDHKGRFAFSLDTSVSTAYLQISSLKADDTAVYFCARGGFGSSYWYFDVWGQGSLVTVSS VL: DIQLTQSPSSLSASVGDRVSITCKASQDVSIAVAWYQQKPGKAPKLLIYSAHYRYTGVPDRFSGSGSGTDFTLTISSLQPEDFAVYYCQQHYHTPLTFGAGTKVEIK	binds
MYT13255 (antibody, V domains shown, Sacituzumab HC-LC pairing variant) VH: QVQLQQSGSELKKPGASVKVSCKASGYTFTNYGMNWVKQAPGQGLKWMGWINTYTGEPTYTDDFKHRFAFSLDTSVSTAYLQISSLKADDTAVYFCARGGFGSSYWYFDVWGQGSLVTVSS VL: DIQLTQSPSSLSASVGDRVSITCKASQDVSIAVAWYQQKPGKAPKLLIYSAHYRYTGVPDRFSGSGSGTDFTLTISSLQPEDFAVYYCQQHYHTPLTFGAGTKVEIK	binds
